Data taken from patent US20260028387A1 (published 2026).

B1: VLPKLYVKL (SEQ ID NO: 31) (peptide)
peptide: VLPKLYVKL
notes: synthetic peptide; source genes RPS26P11, RPS26, RPS26P28, RPS26P15, RPS26P25, RPS26P58
B2: MISRTPEV (SEQ ID NO: 17) (peptide)
peptide: MISRTPEV
notes: synthetic peptide; source genes F7, IGHV4-31, IGHG1, IGHG2, IGHG3, IGHG4, IGHM
B3: YTAQIGADIAL (SEQ ID NO: 46) (peptide)
peptide: YTAQIGADIAL
notes: synthetic peptide; source genes TPSB2, TPSAB1
B4: YQDLLNVKM (SEQ ID NO: 54) (peptide)
peptide: YQDLLNVKM
notes: synthetic peptide; source genes DES, NEFM, NEFH, NEFL, VIM, INA
B5: STYGGGLSV (SEQ ID NO: 1) (peptide)
peptide: STYGGGLSV
notes: synthetic peptide; source gene KRT14, KRT16

What follows are binders tested against T1, HLA-A*02:01 (peptide-receptive MHC class I molecule of the UV-ligand exchange assay) (human) (assay: UV-ligand exchange, anti-b2m ELISA; peptide exchange yield grade (>=10% = +; >=20% = ++; >=50 = +++; >=75% = ++++)).
T1 construct: MHC monomer first loaded with a UV-sensitive peptide (not identified) that is cleaved by UV light and exchanged for the test peptide; captured on streptavidin plates
Text: Candidate peptides for T cell based therapies according to the present invention were further tested for their MHC binding capacity (affinity). The individual peptide-MHC complexes were produced by UV-ligand exchange, where a UV-sensitive peptide is cleaved upon UV-irradiation, and exchanged with the peptide of interest as analyzed. Only peptide candidates that can effectively bind and stabilize the peptide-receptive MHC molecules prevent dissociation of the MHC complexes. To determine the yield of the exchange reaction, an ELISA was performed based on the detection of the light chain (β2m) of stabilized MHC complexes. The assay was performed as generally described in Rodenko et al. (Rodenko et al., 2006).
96 well MAXISorp plates (NUNC) were coated aver night with 2 ug/ml streptavidin in PBS at room temperature, washed 4× and blocked for 1 h at 37° C. in 2% BSA containing blocking buffer. Refolded HLA-A*02:01/MLA-001 monomers served as standards, covering the range of 15-500 ng/ml. Peptide-MHC monomers of the UV-exchange reaction were diluted 100 fold in blocking buffer. Samples were incubated for 1 h at 37° C., washed four times, incubated with 2 ug/ml HRP conjugated anti-02m for 1 h at 37° C., washed again and detected with TMB solution that is stopped with […]. Absorption was measured at 450 nm. Candidate peptides that show a high exchange yield (preferably higher than 50%, most preferred higher than 75%) are generally preferred for a generation and production of antibodies or fragments thereof, and/or T cell receptors or fragments thereof, as they show sufficient avidity to the MHC molecules and prevent dissociation of the MHC complexes.

First: IVREFLTAL (synthetic peptide; source gene CRCP) [IVREFLTAL (SEQ ID NO: 21)]
Second: VVMEELLKV (synthetic peptide; source gene CYFIP1) [VVMEELLKV (SEQ ID NO: 60)]
The peptide exchange yield of the first is higher: 50 to 75% for the first, 20 to 50% for the second.

FLLRFSQDNA (synthetic peptide; source gene LAP3) [FLLRFSQDNA (SEQ ID NO: 36)] and LILESIPVV (synthetic peptide; source gene MAPK6) [LILESIPVV (SEQ ID NO: 58)] fall in the same range of peptide exchange yield: 20 to 50% for the first, 20 to 50% for the second.

First: TQTTHELTI (synthetic peptide; source gene PCBP1) [TQTTHELTI (SEQ ID NO: 61)]
Second: B1
The peptide exchange yield of the first is higher: 50 to 75% for the first, 20 to 50% for the second.

First: LLPPPPPPA (synthetic peptide; source gene ADAMTS2) [LLPPPPPPA (SEQ ID NO: 25)]
Second: MLTELEKAL (synthetic peptide; source gene S100A8) [MLTELEKAL (SEQ ID NO: 45)]
The peptide exchange yield of the first is higher: 50 to 75% for the first, 20 to 50% for the second.

VLAEGGEGV (synthetic peptide; source gene PDPN) [VLAEGGEGV (SEQ ID NO: 16)] and SLSPVILGV (synthetic peptide; source gene IL36RN) [SLSPVILGV (SEQ ID NO: 13)] cannot be ordered by peptide exchange yield: 50 to 75% for the first, no less than 75% for the second.

First: NLMASQPQL (synthetic peptide; source gene PKP1) [NLMASQPQL (SEQ ID NO: 5)]
Second: YMLDIFHEV (synthetic peptide; source gene HAS3) [YMLDIFHEV (SEQ ID NO: 32)]
The peptide exchange yield of the first is higher: 50 to 75% for the first, 20 to 50% for the second.

First: TQTAVITRI (synthetic peptide; source gene FAM83D) [TQTAVITRI (SEQ ID NO: 42)]
Second: LLSGDLIFL (synthetic peptide; source gene GJB5) [LLSGDLIFL (SEQ ID NO: 6)]
The peptide exchange yield of the first is lower: 10 to 20% for the first, 50 to 75% for the second.

First: LVRDTQSGSL (synthetic peptide; source gene SERPINH1) [LVRDTQSGSL (SEQ ID NO: 39)]
Second: GLAPNTPGKA (synthetic peptide; source gene PRC1) [GLAPNTPGKA (SEQ ID NO: 57)]
The peptide exchange yield of the first is lower: 20 to 50% for the first, 50 to 75% for the second.

Compared with ALVEVTEHV (synthetic peptide; source gene TMEM132A) [ALVEVTEHV (SEQ ID NO: 56)], TASAITPSV (synthetic peptide; source gene KRT5) [TASAITPSV (SEQ ID NO: 3)] is higher in peptide exchange yield: 20 to 50% for the first, 50 to 75% for the second.

First: KLSDSATYL (synthetic peptide) [KLSDSATYL (SEQ ID NO: 23)]
Second: GAIDLLHNV (synthetic peptide; source gene GBP5) [GAIDLLHNV (SEQ ID NO: 55)]
The peptide exchange yield of the first is higher: 50 to 75% for the first, 20 to 50% for the second.

SLLDTLREV (synthetic peptide; source gene PPP4R1) [SLLDTLREV (SEQ ID NO: 59)] and GLAPFLLNAV (synthetic peptide; source gene FAM115C) [GLAPFLLNAV (SEQ ID NO: 19)] fall in the same range of peptide exchange yield: 50 to 75% for the first, 50 to 75% for the second.

First: SLYNLGGSKRISI (synthetic peptide; source gene KRT5) [SLYNLGGSKRISI (SEQ ID NO: 2)]
Second: GLESEELEPEEL (synthetic peptide; source gene PABPN1) [GLESEELEPEEL (SEQ ID NO: 41)]
The peptide exchange yield of the first is higher: no less than 75% for the first, 20 to 50% for the second.

First: GLMKDIVGA (synthetic peptide; source gene KYNU) [GLMKDIVGA (SEQ ID NO: 49)]
Second: MLAEKLLQA (synthetic peptide; source gene FAT1) [MLAEKLLQA (SEQ ID NO: 26)]
The peptide exchange yield of the first is higher: 50 to 75% for the first, 10 to 20% for the second.

LLRFSQDNA (synthetic peptide; source gene LAP3) [LLRFSQDNA (SEQ ID NO: 35)] and RLPNAGTQV (synthetic peptide; source gene ITGA6) [RLPNAGTQV (SEQ ID NO: 14)] cannot be ordered by peptide exchange yield: 50 to 75% for the first, no less than 75% for the second.

ATGNDRKEAAENSL (synthetic peptide; source gene YWHAE) [ATGNDRKEAAENSL (SEQ ID NO: 44)] and VLASGFLTV (synthetic peptide; source gene TTPAL) [VLASGFLTV (SEQ ID NO: 47)] cannot be ordered by peptide exchange yield: 50 to 75% for the first, no less than 75% for the second.

VAIGGVDGNVRL (synthetic peptide; source gene WDR1) [VAIGGVDGNVRL (SEQ ID NO: 52)] and B2 fall in the same range of peptide exchange yield: 20 to 50% for the first, 20 to 50% for the second.

First: GLAFSLYQA (synthetic peptide; source gene SERPINH1) [GLAFSLYQA (SEQ ID NO: 40)]
Second: KLNDTYVNV (synthetic peptide; source gene TMEM194A) [KLNDTYVNV (SEQ ID NO: 22)]
The peptide exchange yield of the first is lower: 20 to 50% for the first, 50 to 75% for the second.

Compared with FLLDQVQLGL (synthetic peptide; source gene TSPAN10) [FLLDQVQLGL (SEQ ID NO: 18)], LLFAGTMTV (synthetic peptide; source gene CYP2S1) [LLFAGTMTV (SEQ ID NO: 24)] is lower in peptide exchange yield: 50 to 75% for the first, 20 to 50% for the second.

First: SLVSEQLEPA (synthetic peptide; source gene PKP3) [SLVSEQLEPA (SEQ ID NO: 34)]
Second: LLANGVYAA (synthetic peptide; source gene ANO1) [LLANGVYAA (SEQ ID NO: 15)]
The peptide exchange yield of the first is higher: 50 to 75% for the first, 10 to 20% for the second.

B3 and NLREGDQLL (synthetic peptide; source gene AHNAK2) [NLREGDQLL (SEQ ID NO: 27)] fall in the same range of peptide exchange yield: 50 to 75% for the first, 50 to 75% for the second.

GLDVTSLRPFDL (synthetic peptide; source gene FLNA) [GLDVTSLRPFDL (SEQ ID NO: 33)] and B4 fall in the same range of peptide exchange yield: 50 to 75% for the first, 50 to 75% for the second.

B5 and YTQPFSHYGQAL (synthetic peptide; source gene RNPEP) [YTQPFSHYGQAL (SEQ ID NO: 37)] fall in the same range of peptide exchange yield: 50 to 75% for the first, 50 to 75% for the second.

First: SLNGNQVTV (synthetic peptide; source gene QSER1) [SLNGNQVTV (SEQ ID NO: 30)]
Second: SLDGTELQL (synthetic peptide; source gene TMEM102) [SLDGTELQL (SEQ ID NO: 29)]
The peptide exchange yield of the first is lower: 10 to 20% for the first, 50 to 75% for the second.

First: GLASRILDA (synthetic peptide; source gene LAMB3) [GLASRILDA (SEQ ID NO: 12)]
Second: KLFGHLTSA (synthetic peptide; source gene PHTF2) [KLFGHLTSA (SEQ ID NO: 51)]
The peptide exchange yield of the first is higher: 50 to 75% for the first, 20 to 50% for the second.

SLDGFTIQV (synthetic peptide; source gene OAS2) [SLDGFTIQV (SEQ ID NO: 28)] and VVVTGLTLV (synthetic peptide; source gene ARHGDIA) [VVVTGLTLV (SEQ ID NO: 53)] fall in the same range of peptide exchange yield: 20 to 50% for the first, 20 to 50% for the second.

First: KVVGKDYLL (synthetic peptide; source gene CAPZB) [KVVGKDYLL (SEQ ID NO: 43)]
Second: ALWLPTDSATV (synthetic peptide; source gene LAMB3) [ALWLPTDSATV (SEQ ID NO: 11)]
The peptide exchange yield of the first is lower: 10 to 20% for the first, 50 to 75% for the second.

First: SMHQMLDQTL (synthetic peptide; source gene TPM1) [SMHQMLDQTL (SEQ ID NO: 48)]
Second: IAAIRGFLV (synthetic peptide; source gene ABHD11) [IAAIRGFLV (SEQ ID NO: 38)]
The peptide exchange yield of the first is lower: 20 to 50% for the first, 50 to 75% for the second.
